Laboratory results reported in patent US20200405889A1 (WASHINGTON UNIVERSITY, published 2020).
Where no end group is shown, it is not given here. [ ]: non-standard residue; d: D form.

Target: mouse chemokine (C-C motif) receptor 2 (CCR2) (mouse, UniProt P51683 1-373)
Experiment: cell-based or functional assay

mouse chemokine (C-C motif) receptor 2 (CCR2), sequence (P51683 whole entry): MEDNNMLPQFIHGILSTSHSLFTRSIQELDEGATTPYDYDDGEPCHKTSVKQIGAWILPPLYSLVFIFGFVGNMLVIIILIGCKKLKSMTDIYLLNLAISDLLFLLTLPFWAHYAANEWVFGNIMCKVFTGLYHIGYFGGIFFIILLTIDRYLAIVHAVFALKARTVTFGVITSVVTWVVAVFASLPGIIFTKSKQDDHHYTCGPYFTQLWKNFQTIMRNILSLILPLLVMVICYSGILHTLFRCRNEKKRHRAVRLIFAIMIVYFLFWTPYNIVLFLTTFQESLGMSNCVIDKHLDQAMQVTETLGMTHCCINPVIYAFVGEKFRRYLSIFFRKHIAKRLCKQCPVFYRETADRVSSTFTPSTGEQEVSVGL

graft/native lung uptake ratio, PET at 4 hours: 7.24 ratio
graft/native lung uptake ratio, PET at 24 hours: 8.44 ratio
graft/native lung uptake ratio, PET, printed 'At 4 hours after transplantation': 6.58 ratio
B1: ^64CuAuNCs-ECL1i (other)
peptide: [dL]G[dT][dF][dL][dK][dC]
modifications: not fully specified (residue 7); also: peptide joined via TA-PEG-Maleimide to a gold nanocluster doped with 64Cu, copy number not given here
